In patent US20250049896A1 (Regeneron, published 2025):
Substitutions are numbered along the chain they refer to.

Key:
[1] = molecular target: T1, mf TFRC ecto-mmh (REGN2054), monomeric monkey (cyno) Tfrc ectodomain with C-terminal myc-myc-hexahistidine tag (monkey (cyno), Macaca fascicularis, UniProt H9EXL1 89-760); assay: SPR (Biacore), mAb captured on anti-human Fc, 100 nM mfTfR-mmh, 25 C
T1 construct: range 89-760; also called mfTfR-mmh; mfTFR-mmh
Procedure: (§1) Biacore binding kinetics assays were conducted for the interaction of 32 anti-human TfR IgG1 monoclonal antibodies from CHO supernatants with TfR reagents at 25° C.
(§2) Equilibrium dissociation constants (KD) for the interaction of anti-TfR monoclonal antibodies with human and fascicularis monkey TfR ecto domain recombinant proteins were determined using a real-time surface plasmon resonance (SPR) based Biacore S200 biosensor. All binding studies were performed in 10 mM HEPES, 150 mM NaCl, 3 mM EDTA, and 0.05% v/v surfactant Tween-20, pH 7.4 (HBS-EP) running buffer at […]. The Biacore CM5 sensor surface was first derivatized by amine coupling with a monoclonal mouse anti-human Fc antibody (REGN2567) followed by a step to capture anti-TfR monoclonal antibodies in CHO conditioned media. […] The dissociation of TfR bound to anti-TfR monoclonal antibodies was monitored for 3 minutes in HBS-EP running buffer. At the end of each cycle, the anti-TfR monoclonal antibodies capture surface was regenerated using a 12-sec injection of 20 mM H₃PO₄. The association rate (ka) and dissociation rate (kd) were determined by fitting the real-time binding sensorgrams to a 1:1 binding model with mass transport limitation using Scrubber 2.0 c software. The dissociation equilibrium constant (KD) and dissociative half-life (t½) were calculated from the kinetic rate constants as: […]

[2] = molecular target: T2, hmm.hTfRC (REGN2431), human transferrin receptor extracellular domain with hexahistidine-myc-myc tag (human, UniProt P02786 89-760); assay: SPR (Biacore), mAb captured on anti-human Fc, 100 nM hTFR-mmh, 25 C
T2 construct: Monomeric recombinant protein, 79210 g/mol; also called hTFR-mmh; His-myc-myc-hTFRC ecto
Procedure: as §1, §2

[3] = molecular target: T3, Hmm-hTFRC (REGN2431), monomeric human transferrin receptor ectodomain with N-terminal hexahistidine-myc-myc … (human, UniProt P02786 89-760); assay: blocking ELISA, supernatant; Hmm-hTFRC binding to immobilized human holo-Tf
T3 construct: also called hmm.hTfR(C89-F763); His-myc-myc-hTFRC ecto
Procedure: In the blocking assay, the anti-human Transferrin goat IgG polyclonal antibody (anti-hTf pAb) was passively absorbed at a concentration of 2 micrograms/mL in PBS on a 96-well microtiter plate overnight at 4° C. […] To the same plate, human holo-Tf was then added at a concentration of 1 micrograms/mL in PBS+0.5% BSA for 2 hours at room temperature. […] After a 1-hour incubation, the mixtures were transferred to the human holo-Tf microtiter plates. […] The plates were developed using TMB substrate solution according to the manufacturer's recommended procedure and absorbance at 450 nm was measured on a Victor™ Multilabel Plate Reader.
The ability of the anti-TfR antibody to block human TFRC binding to human holo-Tf was evaluated using an ELISA-based blocking assay.

T1 sequence (chain, as listed by the source): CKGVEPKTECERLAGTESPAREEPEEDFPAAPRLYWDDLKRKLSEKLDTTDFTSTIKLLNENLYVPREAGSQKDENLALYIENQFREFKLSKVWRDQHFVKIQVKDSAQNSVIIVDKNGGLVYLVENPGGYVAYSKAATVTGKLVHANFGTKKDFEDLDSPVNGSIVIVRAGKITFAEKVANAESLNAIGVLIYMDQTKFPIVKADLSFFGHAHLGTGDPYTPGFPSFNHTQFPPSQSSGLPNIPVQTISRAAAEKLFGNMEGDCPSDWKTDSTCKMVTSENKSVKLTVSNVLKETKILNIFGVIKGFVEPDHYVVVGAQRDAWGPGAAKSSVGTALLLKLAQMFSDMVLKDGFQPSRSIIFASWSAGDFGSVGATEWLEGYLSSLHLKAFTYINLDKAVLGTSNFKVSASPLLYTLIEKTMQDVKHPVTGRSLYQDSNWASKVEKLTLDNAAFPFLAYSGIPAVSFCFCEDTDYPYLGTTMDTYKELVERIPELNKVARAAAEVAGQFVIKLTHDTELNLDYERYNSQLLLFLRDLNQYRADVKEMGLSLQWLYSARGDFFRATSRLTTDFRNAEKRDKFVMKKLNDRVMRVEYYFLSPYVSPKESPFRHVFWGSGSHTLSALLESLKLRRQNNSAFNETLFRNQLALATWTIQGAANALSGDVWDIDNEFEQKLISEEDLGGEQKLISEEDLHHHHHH
T2 sequence (P02786 other isoform, or with tags, fused parts or gaps): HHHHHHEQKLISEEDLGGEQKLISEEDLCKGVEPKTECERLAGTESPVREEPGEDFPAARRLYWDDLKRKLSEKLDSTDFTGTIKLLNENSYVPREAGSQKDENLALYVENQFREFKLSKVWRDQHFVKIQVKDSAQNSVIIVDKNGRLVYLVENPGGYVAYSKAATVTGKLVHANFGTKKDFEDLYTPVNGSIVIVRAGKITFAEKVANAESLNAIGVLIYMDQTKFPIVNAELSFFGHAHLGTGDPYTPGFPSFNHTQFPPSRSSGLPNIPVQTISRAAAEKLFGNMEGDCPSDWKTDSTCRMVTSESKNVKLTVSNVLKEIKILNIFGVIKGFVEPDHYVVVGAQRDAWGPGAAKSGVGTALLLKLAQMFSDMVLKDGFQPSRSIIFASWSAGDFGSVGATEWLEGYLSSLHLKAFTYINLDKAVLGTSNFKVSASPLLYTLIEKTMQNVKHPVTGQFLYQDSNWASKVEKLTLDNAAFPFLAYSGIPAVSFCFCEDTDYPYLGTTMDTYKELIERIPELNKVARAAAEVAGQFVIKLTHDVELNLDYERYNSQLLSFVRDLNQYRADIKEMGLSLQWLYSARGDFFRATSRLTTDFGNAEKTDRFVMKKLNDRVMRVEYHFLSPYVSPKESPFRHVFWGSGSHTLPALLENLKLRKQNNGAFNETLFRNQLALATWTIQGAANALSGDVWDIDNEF
T3 sequence (P02786 other isoform, or with tags, fused parts or gaps): as above

B1: 12844B (antibody, human IgG1, kappa, V domains shown)
VH: EVQLVESGGSVVRPGGSLRLSCEASGFTFDDYGMSWVRQDPGKGLEWVSGINWNGDRTNYADSVKGRFIISRDNAKNSVYLQMNSLRAEDSALYHCARDQGLGVAATLDYWGQGTLVTVSS
VL: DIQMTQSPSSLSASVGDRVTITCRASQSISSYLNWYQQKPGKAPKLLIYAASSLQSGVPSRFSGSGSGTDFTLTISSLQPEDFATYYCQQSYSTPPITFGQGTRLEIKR
notes: Tested as bivalent human IgG1 from CHO primary supernatant
[1]
  100 nM Ag Bound (RU): 437 RU
  Kd: 9.68 nM
  koff: 0.000735 s⁻¹
  kon: 75900 M⁻¹ s⁻¹
  t½: 15.7 min
[2]
  100 nM Ag Bound (RU): 946 RU
  Kd: 0.935 nM
  koff: 0.000122 s⁻¹
  kon: 131000 M⁻¹ s⁻¹
  t½: 95 min

B2: 12795B scFv (VK-VH) (scFv)
scFv: DIQMTQSPSSLSASVGDRVTITCRASQGIRDHFGWYQQKPGKAPKRLIYAASSLHSGVPSRFSGSGSGTEFTLTISSLQPEDFATYYCLQYDTYPLTFGGGTKVEIKGGGGSGGGGSGGGGSEVQLVESGGGLVQPGGSLRLSCATSGFTFTSYDMKWVRQAPGLGLEWVSAISGSGGNTYYADSVKGRFTISRDNSRNTLYLQMNSLRAEDTAVYYCTRSHDFGAFDYFDYWGQGTLVTVSS
notes: CHO supernatant; Vk-3xG4S-Vh
[3]
  % Blocking: 23%

B3: 12795B scFv (VH-VK) (scFv)
chain: EVQLVESGGGLVQPGGSLRLSCATSGFTFTSYDMKWVRQAPGLGLEWVSAISGSGGNTYYADSVKGRFTISRDNSRNTLYLQMNSLRAEDTAVYYCTRSHDFGAFDYFDYWGQGTLVTVSSDIQMTQSPSSLSASVGDRVTITCRASQGIRDHFGWYQQKPGKAPKRLIYAASSLHSGVPSRFSGSGSGTEFTLTISSLQPEDFATYYCLQYDTYPLTFGGGTKVEIK
[3]
  % Blocking: 45%

B4: 12835B (antibody, human IgG1, kappa, V domains shown)
VH: EVQLVESGGGLIQPGGSLRLSCEASGFTFRNYEMNWVRQAPGKGLEWVSYISSSGNMKDYAESVKGRFTISRDNVKNSLQLQMNSLRVEDTAVYYCARDEFPYGMDVWGQGTTVTVSS
VL: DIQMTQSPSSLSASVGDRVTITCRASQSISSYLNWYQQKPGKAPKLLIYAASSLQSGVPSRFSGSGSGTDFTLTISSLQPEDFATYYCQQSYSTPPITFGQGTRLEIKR
notes: Tested as bivalent human IgG1 from CHO primary supernatant; also called H1H12835B; REGN17509
[1]
  100 nM Ag Bound (RU): 254 RU
  Kd: 17.7 nM
  koff: 0.00168 s⁻¹
  kon: 95100 M⁻¹ s⁻¹
  t½: 6.9 min
[2]
  100 nM Ag Bound (RU): 1150 RU
  Kd: 3.11 nM
  koff: 0.000417 s⁻¹
  kon: 134000 M⁻¹ s⁻¹
  t½: 27.7 min

B5: 12798B Fab (Fab, V domains shown)
VH: EVQLVESGGDLVQPGRSLRLSCAASGFTFDDYAMHWVRQAPGKGLEWVSGISWNSATRVYADSVKGRFTISRDNAKNFLYLQMNSLRSEDTALYHCAKDMDISLGYYGLDVWGQGTTVTVSS
VL: not shown
notes: CHO supernatant
[3]
  % Blocking: 10%

B6: 12843B (antibody, human IgG1, kappa, V domains shown)
VH: EVQLVESGGGLVQPGGSLRLSCAASGFTFNIFEMNWVRQAPGKGLEWISYISSRGTTTYYADSVRGRFTISRDNAKNSLYLQMNSLRAEDTAVYYCARDYEATIPFDFWGQGTLVTVSS
VL: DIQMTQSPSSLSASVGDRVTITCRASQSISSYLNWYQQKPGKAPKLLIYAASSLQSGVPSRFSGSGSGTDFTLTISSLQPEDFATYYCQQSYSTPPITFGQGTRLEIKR
notes: Tested as bivalent human IgG1 from CHO primary supernatant; also called H1H12843B; REGN17512
[1]
  100 nM Ag Bound (RU): 399 RU
  Kd: 15 nM
  koff: 0.00118 s⁻¹
  kon: 79000 M⁻¹ s⁻¹
  t½: 9.8 min
[2]
  100 nM Ag Bound (RU): 854 RU
  Kd: 1.78 nM
  koff: 0.000168 s⁻¹
  kon: 94200 M⁻¹ s⁻¹
  t½: 68.8 min

B7: 12801B (antibody, human IgG1, kappa, V domains shown)
VH: EVQLLESGGALVQPGGSLRLSCAASGFTFTSYAMHWVRQAPGKGLEWVSSIRGSGGGTYSADSVKGRFTISRDNSRDTLYLQMNSVRAEDTAVYYCARSHDYGAFDFFDYWGQGTLVTVSS
VL: DIQMTQSPSSLSASVGDRVTITCRASQGIRTDLGWYQQKPGKAPKRLIYAASSLQSGVPSRFSGSGSGTEFTLTISSLRPEDFATFYCLQYNSYPLTFGGGTKVEIKR
notes: as for B1
[1]
  100 nM Ag Bound (RU): 159 RU
  Kd: 10.2 nM
  koff: 0.000653 s⁻¹
  kon: 64000 M⁻¹ s⁻¹
  t½: 17.7 min
[2]
  100 nM Ag Bound (RU): 598 RU
  Kd: 0.513 nM
  koff: 4.19e-05 s⁻¹
  kon: 81900 M⁻¹ s⁻¹
  t½: 276 min

B8: 12795B Fab (Fab, V domains shown)
VH: EVQLVESGGGLVQPGGSLRLSCATSGFTFTSYDMKWVRQAPGLGLEWVSAISGSGGNTYYADSVKGRFTISRDNSRNTLYLQMNSLRAEDTAVYYCTRSHDFGAFDYFDYWGQGTLVTVSS
VL: B7 VL with T31D, D32H, L33F, Q55H, R79Q, F86Y, N92D, S93T
notes: CHO supernatant
[3]
  % Blocking: 44%

B9: 12808B (antibody, human IgG1, kappa, V domains shown)
VH: QLQLQESGPGLVKPSETLSLTCTVSGESISSNTYYWGWIRQPPGKGLEWIGSIDYSGTTNYNPSLKSRVTISVDTSRNHFSLRLRSVTAADTAVYYCAREWGNYGYYYGMDVWGQGTTVTVSS
VL: DIQMTQSPSSLSASVGDRVTINCRASQGIRNDLGWYQQKPGKAPKRLIYAASSLQSGVPLRFSGSGSGTEFTLTINNLQPEDFATYYCLSHNSYPWTFGQGTKVEIKR
notes: as for B1
[1]
  100 nM Ag Bound (RU): 626 RU
  Kd: 5.78 nM
  koff: 0.000454 s⁻¹
  kon: 78500 M⁻¹ s⁻¹
  t½: 25.5 min
[2]
  100 nM Ag Bound (RU): 964 RU
  Kd: 0.894 nM
  koff: 0.000107 s⁻¹
  kon: 119000 M⁻¹ s⁻¹
  t½: 108 min

B10: 12850B (antibody, human IgG1, kappa, V domains shown)
VH: QVQLVQSGAEVKKPGSSVKVSCKASGGTFNTYAITWVRQAPGQGLEWMGGIIPISGIAEYAQKFQGRVTITTDDSSTTAYMELNSLRSEDTAVYYCASWNYALYYFYGMDVWGRGTTVTVSS
VL: not shown
notes: Tested as bivalent human IgG1 from CHO primary supernatant; also called H1H12850B; REGN17516
[1]
  100 nM Ag Bound (RU): 87 RU
  Kd: 15.5 nM
  koff: 0.00157 s⁻¹
  kon: 101000 M⁻¹ s⁻¹
  t½: 7.3 min
[2]
  100 nM Ag Bound (RU): 725 RU
  Kd: 0.215 nM
  koff: 1.76e-05 s⁻¹
  kon: 83700 M⁻¹ s⁻¹
  t½: 657 min

B11: 12847B (antibody, human IgG1, kappa, V domains shown)
VH: EVQLVESGGGLVQPGRSLRLSCAASGFTFDDYAMNWVRQAPGKGLEWVSGISWSSGSMDYADSVKGRFTISRDNAKNSLYLQMNSLRTEDTALYYCAKAREVGDYYGMDVWGQGTTVTVSS
VL: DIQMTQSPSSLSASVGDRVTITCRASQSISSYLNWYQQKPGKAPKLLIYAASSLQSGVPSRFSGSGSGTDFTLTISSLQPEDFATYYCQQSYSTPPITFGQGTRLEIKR
notes: Tested as bivalent human IgG1 from CHO primary supernatant; also called H1H12847B; REGN17514
[1]
  100 nM Ag Bound (RU): 702 RU
  Kd: 3.36 nM
  koff: 0.000333 s⁻¹
  kon: 99200 M⁻¹ s⁻¹
  t½: 34.7 min
[2]
  100 nM Ag Bound (RU): 895 RU
  Kd: 1.62 nM
  koff: 0.000171 s⁻¹
  kon: 105000 M⁻¹ s⁻¹
  t½: 67.6 min

B12: 12848B (antibody, human IgG1, kappa, V domains shown)
VH: EVQLVESGGGLVQPGRSLTLSCAASGFTFDNFGMHWVRQGPGKGLEWVSGLTWNSGVIGYADSVKGRFTISRDNAKNSLYLQMNSLRPEDTALYYCAKDIRNYGPFDYWGQGTLVTVSS
VL: not shown
notes: Tested as bivalent human IgG1 from CHO primary supernatant; also called H1H12848B; REGN17515
[1]
  100 nM Ag Bound (RU): 261 RU
  Kd: 18.2 nM
  koff: 0.000962 s⁻¹
  kon: 52900 M⁻¹ s⁻¹
  t½: 12 min
[2]
  100 nM Ag Bound (RU): 823 RU
  Kd: 0.494 nM
  koff: 4.99e-05 s⁻¹
  kon: 101000 M⁻¹ s⁻¹
  t½: 232 min

B13: 12802B (antibody, human IgG1, kappa, V domains shown)
VH: QVQLVESGGGLVKPGGSLRLSCAASGFTFSDYFMSWIRQAPGKGLEWVSYISSTGSTINYADSVKGRFTISRDNVKNSLYLQMTSLRVEDTAVYYCTRDNWNYEYWGQGTLVTVSS
VL: EIVMTQSPATLSVSPGERATLSCRASQSVSINLAWYQQKPGQAPRLLIFVASTRATGIPARFSGSGSGTEFTLTISSLQSEDFATYYCQQYDIWPYTFGQGTKLEIKR
notes: as for B1
[1]
  100 nM Ag Bound (RU): 464 RU
  Kd: 7.51 nM
  koff: 0.000529 s⁻¹
  kon: 70500 M⁻¹ s⁻¹
  t½: 21.8 min
[2]
  100 nM Ag Bound (RU): 903 RU
  Kd: 0.236 nM
  koff: 2.92e-05 s⁻¹
  kon: 123000 M⁻¹ s⁻¹
  t½: 395 min
